Here are results for 8 molecules from patent publication WO2013005649A1 (dated 2013).

Sequences and labels used below:
B1: anti-human CCR6 mouse monoclonal antibody KM4705 (antibody, mouse IgG2b, V domains shown)
VH: EVQLVETGGGLVQPKGSLKLSCAASGFSFKTNAMNWVRQAPGKGLEWVARIRSKINNYATYYADSVKDRFTISRDDSQSMLYLQMNNLKTEDTAMYYCVSDHYGYGAVDYWGQGTSVTVSS
VL: DIQMNQSPSSLSASLGDTITITCRASQNINIWLSWYQQKPGSIPKLLIYKASNLHTGVSSRFSGSGYGTDFTLTISSLQPEDIATYYCLQGRSYPLTFGGGTNLEIK
B2: anti-human CCR6 rat monoclonal antibody KM4703 (antibody, rat IgG2b, V domains shown)
VH: QVQMKETGPGLVQPTQTLSLTCTVSGFSLTSSRVHWVRQPPGKGLEWMGVIYYDGKTDYNATLKSRLSISRDTSKSQVFLKINSLQTDDTAMYYCAGGVIMDAWGQGASVTVSP
VL: DVLMTQIPVSLPVSLGGQVAISCRSSQSLVHTDGNTYLHWYLQKPGQSPQLLIYRVSNRFSGVPDRFSGSGSGTDFTLKISRVEPEDLGVYYCSQRTYFPLTFGSGTKLEIK
B3: anti-human CCR6 rat monoclonal antibody KM4704 (antibody, rat IgG2b, V domains shown)
VH: EVQLQESGPGLVKPSQSLSLTCSVTGYSITSNYWGWIRKFPGNKMEWMGYTSSSGSTSYNPYLKSRISITRDTSKNQFFLKLNSVTTEDTATYYCTGGYVMDAWGQGASVTVSS
VL: B2 VL with I7T, A20S, T32S, S94L, F99V, L101W, S105G, E110D, I111L
B4: anti-human CCR6 mouse monoclonal antibody KM4592 (antibody, V domains shown)
VH: DVQLVESGGGLVQPGGSRKLSCAASGFTFSSFGMHWVRQAPEKGLEWVAYISTGSGSIYYADTVKGRFTISRDNPKNTLFLQMTSLRSEDTAIYYCLKGGDGYYVAAWFAYWGQGTLVTVSA
VL: DIVLTQAAPSVSVTPGESVSISCRSSKSLLHTNDNTYLYWFLQRPGQSPQLLIYRMSNLASGVPDRFSGSGSGTAFTLRISRVEAEDVGVYYCMQHLEYPLTFGAGTKLELK
B5: anti-human CCR6 chimeric antibody KM4705 chimera (antibody, human IgG1, V domains shown)
VH: B1 VH
VL: B1 VL
B6: anti-human CCR6 chimeric antibody KM4703 chimera (antibody, human IgG1, V domains shown)
VH: B2 VH
VL: B2 VL
B7: anti-human CCR6 chimeric antibody KM4704 chimera (antibody, human IgG1, V domains shown)
VH: B3 VH
VL: B2 VL with I7T, A20S, T32S, S94L, F99V, L101W, S105G, E110D, I111L
B8: anti-human CCR6 chimeric antibody KM4592 chimera (antibody, human IgG1, V domains shown)
VH: B4 VH
VL: B4 VL

Substitutions are numbered along the chain they refer to. Non-standard residues stand in square brackets, D forms with d. No end group written: not given here. sY = N[C@@H](Cc1ccc(OS(=O)(=O)O)cc1)C(=O)O

In one assay the target is T1, human CCR6 with C-terminal His tag, on CHO-hCCR6 (isoform1) or U937-CCR6 cells (human, UniProt P51684 1-374).
T1 construct: Expressed from pKANTEX-hCCR6 (isoform1) in CHO/DG44 cells (CHO-hCCR6) and in U937 cells (U937-CCR6); also called hCCR6-His-tag
T1 sequence: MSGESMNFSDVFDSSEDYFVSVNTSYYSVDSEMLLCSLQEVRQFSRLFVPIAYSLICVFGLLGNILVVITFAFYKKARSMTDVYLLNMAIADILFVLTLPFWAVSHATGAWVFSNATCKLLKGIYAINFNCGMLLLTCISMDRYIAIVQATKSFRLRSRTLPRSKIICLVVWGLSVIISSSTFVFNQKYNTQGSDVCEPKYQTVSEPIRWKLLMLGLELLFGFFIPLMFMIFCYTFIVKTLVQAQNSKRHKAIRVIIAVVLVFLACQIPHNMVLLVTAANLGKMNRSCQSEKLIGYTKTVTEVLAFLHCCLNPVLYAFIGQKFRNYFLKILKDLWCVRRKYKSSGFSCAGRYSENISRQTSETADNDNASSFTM
The experiment in a line: flow cytometry on CHO-hCCR6 cells, 0.0001 to 10 μg/mL antibody. Background: In flow cytometry, cells or beads pass a laser one at a time.
With B1, the binding result is listed as “binds”.

On to B2, for which the binding result is “binds”.

On to B3, for which the binding result was “binds”.

B4: the binding result was “binds”.

In a further assay the target is T2, cynomolgus monkey CCR6 (isoform 1, 177Val type) with C-terminal His tag, on CHO-cynomolgus CCR6 cells (cynomolgus monkey, UniProt P51684 1-374 (human entry)).
T2 construct: also called mfCCR6
T2 chain: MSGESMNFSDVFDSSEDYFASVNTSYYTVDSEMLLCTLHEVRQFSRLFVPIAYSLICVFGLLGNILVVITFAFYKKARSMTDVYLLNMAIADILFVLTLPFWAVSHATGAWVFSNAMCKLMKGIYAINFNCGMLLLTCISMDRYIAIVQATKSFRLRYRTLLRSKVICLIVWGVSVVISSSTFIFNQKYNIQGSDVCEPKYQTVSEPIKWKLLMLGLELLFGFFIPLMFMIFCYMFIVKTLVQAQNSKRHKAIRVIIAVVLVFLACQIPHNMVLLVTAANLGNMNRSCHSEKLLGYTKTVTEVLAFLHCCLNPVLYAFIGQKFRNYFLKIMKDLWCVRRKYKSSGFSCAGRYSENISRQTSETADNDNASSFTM
The experiment in a line: flow cytometry on CHO-cynomolgus CCR6 cells.
As to B5, the binding result is reported as “binds”.

Take B6: the binding result was “binds”.

In the case of B7, the binding result was “binds”.

For the molecule B8, the binding result is recorded as “binds”.

The next assay has as its target T1, human CCR6 with C-terminal His tag, on …. The experiment in a line: flow cytometry on CHO-hCCR6 cells.
For B5, the binding result is “binds”.

For the molecule B6, the binding result was “binds”.

On to B7, for which the binding result is given as “binds”.

In the case of B8, the binding result is “binds”.

The next assay has as its target T2, cynomolgus monkey CCR6 (isoform 1, …). The experiment in a line: flow cytometry on CHO-cynomolgus CCR6 cells, 0.0001 to 10 μg/mL antibody.
On to B1, for which the binding result is given as “binds”.

B2: the binding result was “binds”.

For B3, the binding result is on record as “binds”.

As for B4, the binding result was “binds”.

A further assay addresses T3, synthetic peptide CCR6-4 (30th to 46th amino acids of human CCR6) (human, also: 11 PEG units at the N-terminal side).
T3 construct: also called CCR6-4 peptide
T3 peptide: DSEMLLSSLQEVRQFSRC
The experiment in a line: binding ELISA on coated peptide. (In general: ELISA stands for enzyme-linked immunosorbent assay.)
Turning to B1, the binding result is “no binding (tested: 10 μg/mL)”.

In the case of B2, the binding result is on record as “no binding (tested: 10 μg/mL)”.

With B3, the binding result is on record as “no binding (tested: 10 μg/mL)”.

Take B4: the binding result is “no binding (tested: 10 μg/mL)”.

Another assay addresses T4, synthetic peptide CCR6-2 (9th to 23rd amino acids of human CCR6) (human, not fully specified).
T4 construct: Not sulfated; also called CCR6-2 peptide; P3: CCR6-2(B)
T4 peptide: CSDVFDSSEDYFVSVN
The experiment in a line: binding ELISA on coated peptide.
As to B5, the binding result is recorded as “binds”.

Another assay addresses T5, synthetic peptide CCR6-3 (20th to 34th amino acids of human CCR6) (human, Cys residue introduced at the N-terminal or C-terminal side).
T5 construct: also called CCR6-3 peptide
T5 peptide: CVSVNTSYYSVDSEML
The experiment in a line: binding ELISA on coated peptide.
Consider B1, for which the binding result is “no binding (tested: 10 μg/mL)”.

Turning to B2, the binding result is given as “no binding (tested: 10 μg/mL)”.

B3: the binding result is “no binding (tested: 10 μg/mL)”.

With B4, the binding result is reported as “no binding (tested: 10 μg/mL)”.

For another assay, the target named is T6, synthetic peptide CCR6-2S (9th to 23rd amino acids of human CCR6, Tyr18-sulfation) (human).
T6 construct: also called CCR6-2S peptide; P2: CCR6-2S(B)
T6 peptide: CSDVFDSSED[sY]FVSVN
The experiment in a line: binding ELISA on coated peptide.
For the molecule B5, the binding result is “binds”.

The next assay addresses T7, synthetic peptide CCR6-1 (1st to 17th amino acids of human CCR6) (human, also: 11 PEG units at the C-terminal side).
T7 construct: also called CCR6-1 peptide
T7 peptide: MSGESMNFSDVFDSSEDC
The experiment in a line: binding ELISA on coated peptide.
Turning to B5, the binding result was “binds”.

B6: the binding result is “no binding”.

For the molecule B7, the binding result is given as “no binding”.

B2: the binding result is listed as “no binding (tested: 10 μg/mL)”.

As to B3, the binding result is reported as “no binding (tested: 10 μg/mL)”.

In the case of B8, the binding result is given as “no binding”.

For the molecule B4, the binding result was “no binding (tested: 10 μg/mL)”.

The target in a further assay is T8, human CCR6 N-terminal extracellular domain Fc fusion protein NthCCR6-IgG4Fc (human, contains a sulfated Tyr residue; N-linked sugar chains).
T8 construct: Made in CHO/DG44 cells; also called NthCCR6-Fc; NtCCR6-IgG4Fc
T8 sequence (chain, as listed by the source limits assumed): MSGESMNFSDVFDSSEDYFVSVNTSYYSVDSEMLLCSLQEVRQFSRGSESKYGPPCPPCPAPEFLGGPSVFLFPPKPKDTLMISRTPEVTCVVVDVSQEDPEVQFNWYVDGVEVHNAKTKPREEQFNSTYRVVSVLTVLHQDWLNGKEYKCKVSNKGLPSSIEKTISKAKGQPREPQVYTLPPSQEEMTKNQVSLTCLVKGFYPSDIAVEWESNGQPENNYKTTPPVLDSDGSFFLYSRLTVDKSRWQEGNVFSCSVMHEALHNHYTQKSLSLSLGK
The experiment in a line: SPR, Biacore T100; NthCCR6-IgG4Fc captured on anti-human IgG CM5 chip, antibody injected. (SPR reads the build-up and loss of mass on a sensor chip optically.)
On to B1, for which the Kd (commonly the constant that tells how readily two partners part at equilibrium) was 6.52 nM.

In the case of B2, the dissociation constant (Kd) is 1.15 nM.

With B3, the Kd worked out at 0.67 nM.

For the molecule B4, the dissociation constant Kd turned out to be 0.38 nM.

The target of another assay is T4, synthetic peptide CCR6-2 (9th to 23rd …). The experiment in a line: binding ELISA on coated peptide, 10 μg/mL antibody.
On to B1, for which the binding result is given as “binds”.

For another assay, the target named is T6, synthetic peptide CCR6-2S (9th to 23rd …). The experiment in a line: binding ELISA on coated peptide, 10 μg/mL antibody.
In the case of B1, the binding result was “binds”.

For another assay, the target named is T7, synthetic peptide CCR6-1 (1st to 17th …). The experiment in a line: binding ELISA on coated peptide, 10 μg/mL antibody.
For the molecule B1, the binding result is recorded as “binds”.
